Measurements as given in PMC3961392 (PLoS Pathogens, 2014).
Positions count from the first letter of the chain named. Names may count otherwise.

B1: APOBEC3F (enzyme, human, UniProt Q8IUX4 1-373, looked up)
chain: MKPHFRNTVERMYRDTFSYNFYNRPILSRRNTVWLCYEVKTKGPSRPRLDAKIFRGQVYSQPEHHAEMCFLSWFCGNQLPAYKCFQITWFVSWTPCPDCVAKLAEFLAEHPNVTLTISAARLYYYWERDYRRALCRLSQAGARVKIMDDEEFAYCWENFVYSEGQPFMPWYKFDDNYAFLHRTLKEILRNPMEAMYPHIFYFHFKNLRKAYGRNESWLCFTMEVVKHHSPVSWKRGVFRNQVDPETHCHAERCFLSWFCDDILSPNTNYEVTWYTSWSPCPECAGEVAEFLARHSNVNLTIFTARLYYFWDTDYQEGLRSLSQEGASVEIMGYKDFKYCWENFVYNDDEPFKPWKGLKYNFLFLDSKLQEILE
notes: also called A3F; not shown: GST, N-terminal, cleaved
B2: APOBEC3F NGM mutant (enzyme, human, UniProt Q8IUX4 1-373, looked up)
chain: B1 chain with P191G
notes: also called A3F NGM; A3F 190NGM192; not shown: GST, N-terminal, cleaved

Experiments:
[1] = biological target: the molecule itself; assay: SEC; 10-15 µg of purified enzyme (low enzyme concentration) on a 10 mL Superdex 200 column; 50 mM Tris pH 7.5, 200 mM NaCl; masses and oligomerization states from a Bio-Rad gel filtration standard curve
[2] = biological target: the molecule itself; assay: SEC; data not shown; oligomerization state of the mutant enzymes, method as told for the A3 enzymes (Superdex 200, 50 mM Tris pH 7.5, 200 mM NaCl)

| Protein | stoichiometry N [1] | stoichiometry N [2] |
| --- | --- | --- |
| B1 | 4 |  |
| B2 |  | 4 |
